Binding result and Kd data for six molecules are collected here from paper PMC5131779.

The target in data set [1] is T1, G5N WT (Homo sapiens, UniProt Q8TEQ6 1-726). Nature of the data set: crystal structure.
The target in data set [2] is G5N Y474A (Homo sapiens, UniProt Q8TEQ6 1-726, Y474A). Nature of the data set: EMSA. (A gel shift assay detects complexes by their altered migration in electrophoresis.)
For data set [3], the target named is T1, G5N WT. Nature of the data set: EMSA.
For data set [4], the target named is G5N M403E (Homo sapiens, UniProt Q8TEQ6 1-726, M403E). Nature of the data set: FP.
G5N M403E, sequence (Q8TEQ6 1-726 M403E): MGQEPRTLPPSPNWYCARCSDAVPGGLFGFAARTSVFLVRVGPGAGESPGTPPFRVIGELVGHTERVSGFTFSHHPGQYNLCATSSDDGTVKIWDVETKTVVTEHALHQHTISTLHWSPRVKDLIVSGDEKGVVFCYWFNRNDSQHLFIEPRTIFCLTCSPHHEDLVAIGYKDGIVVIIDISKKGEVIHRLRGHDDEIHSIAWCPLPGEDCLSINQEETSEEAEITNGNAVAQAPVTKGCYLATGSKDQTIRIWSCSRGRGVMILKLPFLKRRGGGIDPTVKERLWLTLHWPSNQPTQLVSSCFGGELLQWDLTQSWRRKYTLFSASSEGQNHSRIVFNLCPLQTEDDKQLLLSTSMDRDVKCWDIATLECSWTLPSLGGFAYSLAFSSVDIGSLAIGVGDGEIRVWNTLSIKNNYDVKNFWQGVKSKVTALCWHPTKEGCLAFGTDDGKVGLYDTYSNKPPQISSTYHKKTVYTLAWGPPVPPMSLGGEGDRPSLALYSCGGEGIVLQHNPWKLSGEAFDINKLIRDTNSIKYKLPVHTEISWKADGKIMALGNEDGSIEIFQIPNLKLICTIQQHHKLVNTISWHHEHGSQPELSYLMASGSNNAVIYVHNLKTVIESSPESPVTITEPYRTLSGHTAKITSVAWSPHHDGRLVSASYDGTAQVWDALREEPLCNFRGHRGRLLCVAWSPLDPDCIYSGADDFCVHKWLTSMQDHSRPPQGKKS
The target in data set [5] is G5N R33A (Homo sapiens, UniProt Q8TEQ6 1-726, R33A). The data set can be described thus: FP.
G5N R33A, sequence (Q8TEQ6 1-726 R33A): as the sequence (Q8TEQ6 1-726 M403E) above, with R33A, E403M counted along it
Data set [6] addresses T1, G5N WT. Nature of the data set: FP.
The target in data set [7] is G5N R335E (Homo sapiens, UniProt Q8TEQ6 1-726, R335E). Nature of the data set: FP.
G5N R335E, sequence (Q8TEQ6 1-726 R335E): as the sequence (Q8TEQ6 1-726 M403E) above, with R335E, E403M counted along it
For data set [8], the target named is G5N M357A (Homo sapiens, UniProt Q8TEQ6 1-726, M357A). The data set can be described thus: FP.
G5N M357A, sequence (Q8TEQ6 1-726 M357A): as the sequence (Q8TEQ6 1-726 M403E) above, with M357A, E403M counted along it
In data set [9] the target is G5N R359A (Homo sapiens, UniProt Q8TEQ6 1-726, R359A). The data set can be described thus: FP.
G5N R359A, sequence (Q8TEQ6 1-726 R359A): as the sequence (Q8TEQ6 1-726 M403E) above, with R359A, E403M counted along it
Data set [10] addresses G5N N13A (Homo sapiens, UniProt Q8TEQ6 1-726, N13A). The data set can be described thus: FP.
In data set [11] the target is G5N Y383F (Homo sapiens, UniProt Q8TEQ6 1-726, Y383F). The data set can be described thus: FP.
G5N Y383F, sequence (Q8TEQ6 1-726 Y383F): as the sequence (Q8TEQ6 1-726 M403E) above, with Y383F, E403M counted along it
The target of data set [12] is T1, G5N WT. Nature of the data set: EMSA. This is another data set of the same source.

T1 sequence (Q8TEQ6 1-726): as the sequence (Q8TEQ6 1-726 M403E) above, with E403M counted along it
G5N Y474A, sequence (Q8TEQ6 1-726 Y474A): as the sequence (Q8TEQ6 1-726 M403E) above, with E403M, Y474A counted along it
G5N N13A, sequence (Q8TEQ6 1-726 N13A): as the sequence (Q8TEQ6 1-726 M403E) above, with N13A, E403M counted along it

B1: U4 7-mer (bare Sm site) (ssRNA)
RNA: AUUUUUG
With B1, the binding result in [1] was “binds”.

B2: U4 13-mer (ssRNA)
RNA: GCAAUUUUUGACA
Turning to B2, the binding result in data set [2] is “binds”.

B3: U4 9-mer (soak) (ssRNA)
RNA: CAAUUUUUG
Turning to B3, the binding result in data set [1] is “binds”.

B4: U4 11-mer (ssRNA)
RNA: CAAUUUUUGAC
For B4, in data set [3], the binding result is reported as “binds”.

B5: U4 13-mer, FITC (ssRNA)
RNA: GCAAUUUUUGACA
Usually Kd stands for the concentration at which binding is half-saturated. Low readings indicate a tighter complex, high ones a looser complex. With B5, the Kd was 2000 nM in data set [4]; 3.3 µM in data set [5]; 240 nM in data set [6]; 96.7 µM in data set [7]; 8.1 µM in [8]; 46.6 µM in [9]. The Kd in data set [10] is 1400 nM; in data set [11] it was 3.8 µM.

B6: U4 8-mer (ssRNA)
RNA: AAUUUUUG
In the case of B6, the binding result in data set [12] is listed as “binds”.
